Measured values from the supplement of paper PMC9112550, “Optimization of the antimicrobial peptide Bac7 by deep mutational scanning” (BMC Biology, 2022).

Test system: Escherichia coli TOP10
Assay: shrunken log2 fold change of peptide-encoding DNA abundance (4.5 h post-induction vs induction); higher = less antimicrobial activity (less host growth inhibition)
Details: time post-induction: 4.5 h; library: site-saturation at positions 5, 18, 19, 20
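Note: peptides expressed intracellularly from a pBAD plasmid library in pooled LB shake-flask culture, induced with 0.3% L-arabinose, DNA abundance read by NGS, three biological replicates, DESeq2 with apeglm shrinkage.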

Sequence | shrunken log2 fold change
RRIRWRPPRLPRPRPRPPAHPRP | 0.498
RRIRCRPPRLPRPRPRPHRVPRP | 0.135
RRIRSRPPRLPRPRPRPGIDPRP | -0.0173
RRIRFRPPRLPRPRPRPTDPPRP | -0.0408
RRIRWRPPRLPRPRPRPEKPPRP | 2.12
RRIRVRPPRLPRPRPRPFTQPRP | 0.0152
RRIRNRPPRLPRPRPRPADMPRP | -0.00154
RRIRKRPPRLPRPRPRPEFEPRP | 1.34
RRIRHRPPRLPRPRPRPDQDPRP | -0.0366
RRIRTRPPRLPRPRPRPYQSPRP | -0.465
RRIRFRPPRLPRPRPRPIEAPRP | -0.181
RRIRLRPPRLPRPRPRPHMNPRP | -0.686
RRIRKRPPRLPRPRPRPDYWPRP | 0.0865
RRIRNRPPRLPRPRPRPRVVPRP | 0.078
RRIRARPPRLPRPRPRPQPMPRP | 0.229
RRIRFRPPRLPRPRPRPYMYPRP | -0.635
RRIRCRPPRLPRPRPRPCTFPRP | -0.856
RRIRWRPPRLPRPRPRPINMPRP | -0.328
RRIRSRPPRLPRPRPRPGRMPRP | 0.167
RRIRERPPRLPRPRPRPSIMPRP | -1.02
RRIRARPPRLPRPRPRPWKKPRP | -0.0663
RRIRSRPPRLPRPRPRPLWNPRP | -0.25
RRIRRRPPRLPRPRPRPQGPPRP | 0.206
RRIRWRPPRLPRPRPRPDECPRP | -0.012
RRIRIRPPRLPRPRPRPCRCPRP | -0.319

Sequence | shrunken log2 fold change
RRIRARPPRLPRPRPRPSYYPRP | -0.731
RRIRPRPPRLPRPRPRPMKTPRP | -0.0446
RRIRVRPPRLPRPRPRPFFNPRP | -0.32
RRIRVRPPRLPRPRPRPKSGPRP | 0.148
RRIRGRPPRLPRPRPRPNYLPRP | -0.304
RRIRVRPPRLPRPRPRPQFLPRP | 0.052
RRIRDRPPRLPRPRPRPAERPRP | -0.0412
RRIRARPPRLPRPRPRPWFDPRP | -0.178
RRIRVRPPRLPRPRPRPYKQPRP | -0.00648
RRIRFRPPRLPRPRPRPFHMPRP | -0.116
RRIRWRPPRLPRPRPRPPGYPRP | 0.684
RRIRNRPPRLPRPRPRPVFKPRP | -0.183
RRIRSRPPRLPRPRPRPDHPPRP | -0.0828
RRIRDRPPRLPRPRPRPLGVPRP | 0.577
RRIRVRPPRLPRPRPRPGPVPRP | 0.287
RRIRMRPPRLPRPRPRPYEVPRP | -0.00992
RRIRKRPPRLPRPRPRPNSSPRP | -0.0248
RRIRKRPPRLPRPRPRPTRPPRP | 0.764
RRIRWRPPRLPRPRPRPAECPRP | -0.0444
RRIRSRPPRLPRPRPRPLACPRP | 0.268
RRIRIRPPRLPRPRPRPYFWPRP | -0.388
RRIRRRPPRLPRPRPRPALFPRP | 0.128
RRIRDRPPRLPRPRPRPLCYPRP | 0.00826
RRIRLRPPRLPRPRPRPQGFPRP | -0.0528
RRIRFRPPRLPRPRPRPLDGPRP | -0.143

Sequence | shrunken log2 fold change
RRIRNRPPRLPRPRPRPSDFPRP | -0.00477
RRIRKRPPRLPRPRPRPKGEPRP | 0.201
RRIRWRPPRLPRPRPRPRAIPRP | 0.539
RRIRYRPPRLPRPRPRPWLRPRP | 0.0188
RRIRNRPPRLPRPRPRPHPNPRP | 0.0207
RRIRKRPPRLPRPRPRPNAIPRP | 0.0998
RRIRWRPPRLPRPRPRPRFDPRP | 0.147
RRIRKRPPRLPRPRPRPSAIPRP | -0.00962
RRIRLRPPRLPRPRPRPDENPRP | 0.087
RRIRVRPPRLPRPRPRPSWIPRP | -0.476
RRIRQRPPRLPRPRPRPTCWPRP | 0.0954
RRIRHRPPRLPRPRPRPGMMPRP | 0.00873
RRIRHRPPRLPRPRPRPQVNPRP | -0.273
RRIRIRPPRLPRPRPRPNILPRP | -0.557
RRIRHRPPRLPRPRPRPYMTPRP | -0.313
RRIRDRPPRLPRPRPRPVFPPRP | 0.108
RRIRRRPPRLPRPRPRPIRNPRP | 0.113
RRIRYRPPRLPRPRPRPDIYPRP | 0.0393
RRIRPRPPRLPRPRPRPFKCPRP | -0.214
RRIRERPPRLPRPRPRPQYAPRP | -0.158
RRIRFRPPRLPRPRPRPLNPPRP | -0.1
RRIRVRPPRLPRPRPRPENYPRP | -0.0159
RRIRVRPPRLPRPRPRPDAAPRP | 0.976
RRIRIRPPRLPRPRPRPKDDPRP | -0.254
RRIRLRPPRLPRPRPRPRCGPRP | 0.0294

Sequence | shrunken log2 fold change
RRIRDRPPRLPRPRPRPDCSPRP | 0.573
RRIRIRPPRLPRPRPRPMYVPRP | 0.00823
RRIRQRPPRLPRPRPRPVIAPRP | 0.248
RRIRNRPPRLPRPRPRPNDDPRP | 0.0813
RRIRMRPPRLPRPRPRPDCPPRP | 0.0739
RRIRYRPPRLPRPRPRPHFPPRP | -0.00195
RRIRERPPRLPRPRPRPRTYPRP | -0.517
RRIRPRPPRLPRPRPRPLHVPRP | -0.163
RRIRIRPPRLPRPRPRPDYQPRP | -0.611
RRIRERPPRLPRPRPRPMYPPRP | -0.0412
RRIRPRPPRLPRPRPRPESQPRP | -0.0975
RRIRFRPPRLPRPRPRPTSHPRP | -0.193
RRIRFRPPRLPRPRPRPVACPRP | -0.347
RRIRCRPPRLPRPRPRPMPFPRP | -0.0545
RRIRVRPPRLPRPRPRPMSTPRP | -0.268
RRIRIRPPRLPRPRPRPVWFPRP | -0.125
RRIRPRPPRLPRPRPRPWKYPRP | -0.269
RRIRWRPPRLPRPRPRPKRHPRP | 0.467
RRIRIRPPRLPRPRPRPYYSPRP | -0.213
RRIRDRPPRLPRPRPRPDCTPRP | 0.185
RRIRFRPPRLPRPRPRPQSAPRP | 0.0283
RRIRERPPRLPRPRPRPMFPPRP | -0.475
RRIRQRPPRLPRPRPRPPRQPRP | 0.101
RRIRMRPPRLPRPRPRPGTRPRP | 0.675
RRIRDRPPRLPRPRPRPVTIPRP | -0.0184

Sequence | shrunken log2 fold change
RRIRWRPPRLPRPRPRPTLLPRP | 0.104
RRIRTRPPRLPRPRPRPVNKPRP | 0.0243
RRIRCRPPRLPRPRPRPHISPRP | -0.535
RRIRDRPPRLPRPRPRPMRMPRP | 0.199
RRIRWRPPRLPRPRPRPTLMPRP | 0.479
RRIRWRPPRLPRPRPRPWSDPRP | -0.289
RRIRQRPPRLPRPRPRPTMDPRP | 0.0884
RRIRIRPPRLPRPRPRPGLVPRP | 0.0385
RRIRMRPPRLPRPRPRPLKNPRP | -0.0484
RRIRMRPPRLPRPRPRPMEIPRP | -0.129
RRIRKRPPRLPRPRPRPTIVPRP | -0.0951
RRIRRRPPRLPRPRPRPKKLPRP | 0.166
RRIRHRPPRLPRPRPRPYYVPRP | -0.0196
RRIRKRPPRLPRPRPRPGRAPRP | 0.786
RRIRCRPPRLPRPRPRPMLVPRP | -0.144
RRIRWRPPRLPRPRPRPGHMPRP | -0.0823
RRIRHRPPRLPRPRPRPNMHPRP | 1.05
RRIRTRPPRLPRPRPRPFMRPRP | -0.0135
RRIRHRPPRLPRPRPRPEHMPRP | -0.177
RRIRTRPPRLPRPRPRPGFHPRP | -0.19
RRIRSRPPRLPRPRPRPVIWPRP | 0.0455
RRIRSRPPRLPRPRPRPRLNPRP | 0.15
RRIRKRPPRLPRPRPRPASQPRP | 0.0905
RRIRTRPPRLPRPRPRPYCWPRP | -0.109
RRIRLRPPRLPRPRPRPSSCPRP | -0.277
